The results in this text go back to the DeepSol protein solubility set.

The data set is described as follows: soluble on expression in E. coli; label from the status in PepcDB or PDB records.
“MLLVMGAHESGLDRARLQSLYEQLVATNEDETEKLAASGHSTGLVASEWARFLAPFDFGYRLVALQRESKRVAAALTRALYGIDTSGASEHDPLWAVEHRVLPVPVTDRLLFCEMRFLLVLALSRRLWMRLERVDPLGQENPFPRDAEIIERVEDLARQSRERLALLAERSPEALNAGKQEAHDCIEDLRTKETRAAEQVAGFAQALGDAALLEKVWHALVDEIAQNRQLNHALLQTLCQWVLMLIGADTEVPSSASCSDE”: the “soluble on expression in E. coli” value is on record as “soluble”.
“MGSDKIHHHHHHMKPNIITVILAAGASSRFHGAKMLAKVKGNQSLLARSIVSLNKVTATAGIKAPAVVLGAHLNDEIMAITATSHQIINPDWQQGLSSSVKHASQYAIEQQADALLLVLADQVAIDVDDYLHLIERYQQNGLTSCAFYRQDVGVPAIFLAKDFAVLMSIDGDKGAKSILKQHDKNNSLNIISMEQAQFDIDTPADLARWLDNKD”: the “soluble on expression in E. coli” value is “not soluble”.
As for “MKIGYLGPRGTFTEMAVQTLFDDKNVLKPYRTIPDCMDSVANGDMDAAVVPVENAIEGSVNVTLDYLIHKQRLEIVADIVVPISQHFLVHPNQRDNEIKKILSHPHAVAQCHEFLRSSYPGVEIEYMTSTAAAAQWVADHPNEPVAAIANEQAATSYQLDMLEKDIHDYDENRTRFAVLAKGKLSLPPYQVEPYTKKTTMMVTLSSDFSGALHQVLSAFAWRKLNLTKIESRPMKTGLGNYFFIIDVDCEADDVLIPGVMQELEALGCGVELLGSYPCFFHTSLKLTEASSV”, the entry is “not soluble”.
Consider “MPVANDAPGVDIEGTDADAESGDLPINELFQSLQGEGRLAGVPSVFVRTSGCNLRCWFCDSYHTSWEPTHDWFTVDDVLAAIEEYDANHVVLTGGEPLIHDSSEDLLARLTDRGYHTTVETNGTVVPDAPIDLASVSPKLASSTPTADRDPDGNGEWADRHEERRLDVPTLAELVETYDTQLKFVVTGREDMAEIERLLKRLRDAASTCVRDDDVLLMPEGQTRDQLEATRETVADLALEHGYRYTPRLHVDLWNDAPGT”, for which the “soluble on expression in E. coli” value is “not soluble”.
As for “NDTVLIAGAGHAGFQVAVSLRQAKYPGRIALINDEKHLPYQRPPLSKAYLKSGGDPNSLMFRPEKFFQDQAIELISDRMVSIDREGRKLLLASGTAIEYGHLVLATGARNRMLDVPNASLPDVLYLRTLDESEVLRQRMPDKKHVVVIGAGFIGLEFAATARAKGLEVDVVELAPRVMARVVTPEISSYFHDRHSGAGIRMHYGVRATEIAAEGDRVTGVVLSDGNTLPCDLVVVGVGVIPNVEIAAAAGLPTAAGIIVDQQLLTSDPHISAIGDCALFESVRFGETMRVESVQNATDQARCVAARLTGDAKPYDGYPWFWSDQGDDKLQIVGLTAGFDQVVIRGSVAERSFSAFCYKAGKLIGIESVNRAADHVFGRKILPLDKSVTPEQAADLSFDLKKAAA”, the entry is “soluble”; as for “MNLFYNPKGVGDVAFIQIEPSVGPFEYEQKHGVVEIKKENEVVGYNIFNVSNNVTINDNGHIKLTTELIKDLQQLITEAGFDYQLDTDVSPKFVVGYVETKEKHPNADKLSVLNVNVGTEKLQIVCGAPNVESGQKVVVAKVGAVMPSGMVIKDAQLRGVDSSGMICSMKELNLPNAPKEKGIMVLNDDYDIGQAFFELEHHHHHH”, “soluble”.
For the sequence “MADFLTRFIREELSWRGYEKAIVAVSGGVDSATTLALAVRALGAERVHALFLPHRESSPTSREHAYLVAETFGVALEEVDITPMVEGYAALTPDLTPHRKGNVMARARMIVLFDKSEAYRALPLGTGNKTERLFGYFTWHGDDTPPVNPLGDLYKTQVWRLAEHLGVPEEVVRKPPTADLIPGQTDEADLGLRYLRADVILEHYLKGYSDQYILGLGFTEEELRRVKERVNRTHWKRALPTVALLSSTAIGEFYLRPLDYRP”, the “soluble on expression in E. coli” value was “soluble”.
Take “METKKIAGVLVTMVAPFENHMANGGEKLFGNASSIKRRPDGRVYVSGQMQRHVLFSAIDRLNHLDKAKGTTFVSNGDGITNLIEIDLRADLGGFMHTNKGDYSDRRIAPLSVTPATALDTSSVGRDLLVRIRFDKSSDAKNQALATREYSEQDKMNMNFFLDITSVGVSKSFVYKDGLNLGTKYFKHITDDEKKRRVKLFLEATRIMNDYANQARNAVCGEPEKVLIVFDDRLSRKACRYYTVGEKEQANIIKELDQYQVKYFVGDDASDYSVADAYRDAMNYLDKATLVDFAEGEEIMTFAEAFECKEKEPQEKKSKKGKDKATSAQNLFAEQQDDQ”: the “soluble on expression in E. coli” value was “not soluble”.
“MGSDKIHHHHHHMLEQFHIHADLKQQLSTIHEKNKQEAGENAHLIGTKIYKASDNSIIEDAITALLLGKNILLKGPTGSGKTVLAETLSSLFQKPMHSINCSVDLDVEGILGYNTLQTKDGASEVAFVNGPLMKAMKNGHFLYIDEINMAKPETLPLLHGALDYRKMITNPFTQEVVYGDDEYRVIAAINEGYVGTSELNEALKNRFVIIEVPYIQGDTLKELLLAESKLNDVTTIEKFVAFASDLMPLARDGRVSEEAASIRGIIDACDLGVYIPVMRAIERSIIAKLNDETEQMTVRELAESYFFEG”: the “soluble on expression in E. coli” value is “not soluble”.
Then “MAHHHHHHMIDLTGKTSLITGASSGIGSAIARLLHKLGSKVIISGSNEEKLKSLGNALKDNYTIEVCNLANKEECSNLISKTSNLDILVCNAGITSDTLAIRMKDQDFDKVIDINLKANFILNREAIKKMIQKRYGRIINISSIVGIAGNPGQANYCASKAGLIGMTKSLSYEVATRGITVNAVAPGFIKSDMTDKLNEKQREAIVQKIPLGTYGIPEDVAYAVAFLASNNASYITGQTLHVNGGMLMV”, with “soluble”; and “MQGTRVMHIFVLSKRKITMNVDNVKSQMRKGMLEYCIMLLLHKEPAYASDIIQKLKEAQLIVVEGTLYPLLTRLKNDDLLSYEWVESTQGPPRKYYKLTEKGEAFLGELEISWKELNETVNHIASR”, with “not soluble”.
Then “SEDEWQCTECKKFNSPSKRYCFRCWALRKDWYSDCSKLTH”, with “soluble”; and “MSFFHANQREALNQSLSELQGQINVSFEFFPPRTSEMEDTLWSSIDRLSTLKPKFVSVTYGANSGERDRTHSIIKGIKERTGLEAAPHLTCIDASPTQLRDIAIDYWNSGIRHIVALRGDLPPNSGKPEMYACDLVGLLKDVGDFDISVAAYPEIHPEAKSAQADLINLKRKIDAGANRAITQFFFDVESYLRFRDRCVATGIDVEIVPGILPVSNFKQLQRFATMTNVRVPNWMTSIFDGLDNDPETRKMVGASVAMDMVKILSREGVKDFHFYTLNRAELSYAICHTLGVRP”, with “not soluble”.
As for “MSLERIEPGPDTIRVLLTTDNHVGAFENDPIRGDDAWKTFDEITTIAKDKDVDMIIQGGDLFHINKPTKKSMYHVMKSLRSNCMGDRPCELELLSDPAQSLNNGFDEINYEDPNLNISIPVFAISGNHDDATGESLLLALDVLAVTGLINNFGKVKNTEAITVSPILLQKGQTKLALYGMSNVRDERLHRLFRDGGVKFQRPNIQTEDWFNLFVIHQNHAAHTYTSSIPESFLPNFLDFILWGHEHECIPYPVHNPETTFDVLQAGSSVATSLAEGEVADKKIFILNIKGKDYSIEPVELKTVRPFVLREIILLKTDLIPGAASKADVIAYLTDEVEKSIERANKQFSEGHHHHHH”, the entry is “soluble”.
In the case of “MDMQHDDLNYEYLYGTTYPLMKNAGKAVADAVMKNYPDARTVCVVAGTGNNGGDAIVAGSILSAKYDVRVLIVTEVRSELARRALSEYGGRVIGLDGMEECMKCDVIIDGIFGVGISGDPKDPYRSVIENINRSCSHVVSVDIPSGLGTRYAVKPEITVTFTMEKYGMNQDNSGKIIVADIGIPPDVRKYAGPGDLLYYPKPDPSSHKGMNGTLAIVGGWEFHGSSVIAALAAERIGLDLVRVFVSPRNYQIVSGYDPGIIVRQVEKLDEKKLSEIYGNSAILLGPGMGKGDDAMEAARKIVSDSRVPMVVDADALDAVGAYSGSFAGRKIIITPHKGEFRRISGFEPTEENAISYARKKGLIVVLKGQVDVITNGEEVHYAKGGNARMTMGGTGDLLAGIISAFLARSVDPMRACLMGTYLNKALGEAAYSKHGYWYTVTDMISEIPGVMGKYIKI”, the “soluble on expression in E. coli” value is reported as “not soluble”.
